# Target: the molecule itself
# Assay: SEC
protein,measurement,value
"E. coli HemG (recombinant, six histidine-tagged) (enzyme, UniProt P0ACB4 1-181, looked up) MKTLILFSTRDGQTREIASYLASELKELGIQADVANVHRIEEPQWENYDRVVIGASIRYGHYHSAFQEFVKKHATRLNSMPSAFYSVNLVARKPEKRTPQTNSYARKFLMNSQWRPDRCAVIAGALRYPRYRWYDRFMIKLIMKMSGGETDTRKEVVYTDWEQVANFAREIAHLTDKPTLK",stoichiometry N,4
